The source of these data is the PETadex activity labels (doi:10.1038/s41467-025-61599-z).

Substrate in data set [1]: PET
Nature of the data set: Proxy for plastic degradation [Released monomer concentration (HPLC/LC-MS) (TPA+MHET)].

The nature of data set [2]: Proxy for plastic degradation [UPLC/UHPLC]. The conditions noted are these: pH 9.
Substrate in data set [3]: pNPB
Nature of the data set: Proxy for plastic degradation [Absorbance @ 430nm] (min⁻¹). The conditions noted are these: pH 8; part of the chain shown.

Substrate in data set [4]: PET
Nature of the data set: Proxy for plastic degradation [Released monomer concentration (HPLC/LC-MS) (MHET+TPA)]. The conditions noted are these: pH 9, part of the chain shown.

Substrate in data set [5]: PET
The data set can be described thus: Proxy for plastic degradation [kcat/Km (catalytic efficiency)] (mM⁻¹s⁻¹). The conditions noted are these: pH 8.

Data set [6] in a line: Proxy for plastic degradation [Released monomer concentration (HPLC/LC-MS) (TPA+MHET)].

B1: unnamed (protein)
chain: MAVMTPRRERSSLLSRALQVTAAAATALVTAVSLAAPAHAANPYERGPNPTDALLEASSGPFSVSEENVSRLSASGFGGGTIYYPRENNTYGAVAISPGYTGTEASIAWLGERIASHGFVVITIDTITTLDQPDSRAEQLNAALNHMINRASSTVRSRIDSSRLAVMGHSMGGGGTLRLASQRPDLKAAIPLTPWHLNKNWSSVTVPTLIIGADLDTIAPVATHAKPFYNSLPSSISKAYLELDGATHFAPNIPNKIIGKYSVAWLKRFVDNDTRYTQFLCPGPRDGLFGEVEEYRSTCPF
Turning to B1, the “Proxy for plastic degradation” value was found to be 7.78 µM in data set [1] (30 °C); 26.7 µM in data set [1] (40 °C); 124 µM in data set [1] (50 °C); 850 µM in data set [1] (55 °C); 140 µM in data set [1] (60 °C).

B2: unnamed (protein)
chain: MGGGGEDNVFAEPGDFDVVTEPGGRDCTIFRPEQLGDDHAVVIWGNGTGASPNTYAGLLRHYASHGFVVVAANTSNAGTGEDMLNCLDFLEGSQLASSVDFSKVGATGHSQGGGGAIMAGVDPRIATTAPIEGFTLGLGHDRDSHDQQNGPMLILSGSADRLVNPRTNHAPLFDATNVPAFWAIAQGAGHFEPVGDGGDFRGISTAWFLFQLEDDPEATTHFVGDDCFVCEDPGFDVEGVKEID
B2: the “Proxy for plastic degradation” value in data set [2] (30 °C) was 14 µM; in data set [2] (40 °C), 13.8 µM; in data set [2] (50 °C), 15.8 µM; in data set [2] (55 °C), 14.4 µM; in data set [2] (60 °C) it was 14.9 µM.

B3: unnamed (protein)
chain: MSHRFRLAAAVCVAAAILVPATPAAAADPWDAPGPYATAVQIGAVNTLYYPRDIASSPRRHPVIVWGNGTGAAPLVYRDLLLYWASHGFIVSAANTPASNLGISMRLGIDALAAADADPGSIFRGKVDLAHIGASGHSQGGAAAIVVGADPRIDAILPIQPGPLADIDDVHVPALLLAGQHDSIVFPFLVKAFYNDATHIPAIYAEVRGADHFTVVGDPGPFAAPTTAWFRFQLMGDTAARAEFYGPSCGICTDTRTWSDVRRNALVP
On to B3, for which the “Proxy for plastic degradation” value in data set [2] (30 °C) turned out to be 13 µM; in data set [2] (40 °C) it was 13.4 µM; in data set [2] (50 °C), 14.2 µM; in data set [2] (55 °C) it was 13.4 µM; in data set [2] (60 °C) it was 14.1 µM.

B4: unnamed (protein)
chain: MNFPRASRLMQAAVLGGLMAVSAAATAQTNPYARGPNPTAASLEASAGPFTVRSFTVSRPSGYGAGTVYYPTNAGGTVGAIAIVPGYTARQSSIKWWGPRLASHGFVVITIDTNSTLDQPSSRSSQQMAALRQVASLNGTSSSPIYGKVDTARMGVMGWSMGGGGSLISAANNPSLKAAAPQAPWDSSTNFSSVTVPTLIFACENDSIAPVNSSALPIYDSMSRNAKQFLEINGGSHSCANSGNSNQALIGKKGVAWMKRFMDNDTRYSTFACENPNSTRVSDFRTANCS
Take B4: the “Proxy for plastic degradation” value in data set [2] (30 °C, part of the chain shown) was 37.5 µM; in data set [2] (40 °C, part of the chain shown), 31.2 µM; in data set [2] (50 °C, part of the chain shown) it was 18 µM; in data set [2] (55 °C, part of the chain shown) it was 15.4 µM; in data set [2] (60 °C, part of the chain shown) it was 15.6 µM; in data set [3], 18300. Moreover, the “Proxy for plastic degradation” value in data set [1] (30 °C, part of the chain shown) is 37.5 µM; in data set [1] (40 °C, part of the chain shown) it was 31.2 µM; in data set [1] (50 °C, part of the chain shown) it was 18 µM; in data set [1] (55 °C, part of the chain shown), 15.6 µM; in data set [1] (60 °C, part of the chain shown), 0 µM; in data set [1] (pH 9, 30 °C, 24 h, part of the chain shown) it was 70.2 µM. Besides, the “Proxy for plastic degradation” value came to 69.5 µM in data set [1] (pH 9, 30 °C, 48 h, part of the chain shown); 15.4 µM in data set [1] (pH 9, 30 °C, 72 h, part of the chain shown); 37.5 µM in data set [4] (30 °C); 31.2 µM in data set [4] (40 °C); 18 µM in data set [4] (50 °C); 15.4 µM in data set [4] (55 °C). Moreover, the “Proxy for plastic degradation” value in data set [4] (60 °C) was 15.6 µM.

B5: unnamed (protein)
chain: MNFPRASRLMQAAVLGGLMAVSAAATAQTNPYARGPNPTAASLEASAGPFTVRSFTVSRPSGYGAGTVYYPTNAGGTVGAIAIVPGYTARQSSIKWWGPRLASHGFVVITIDTNSTLDQPESRSSQQMAALRQVASLNGTSSSPIYGKVDTARMGVMGWSMGGGGSLISAANNPSLKAAAPQAPWHSSTNFSSVTVPTLIFACENDSIAPVNSSALPIYDSMSQNAKQFLEIKGGSHSCANSGNSNQALIGKKGVAWMKRFMDNDTRYSTFACENPNSTAVSDFRTANCS
Take B5: the “Proxy for plastic degradation” value in data set [5] worked out at 0.141; in data set [6] (30 °C) it was 213 µM; in data set [6] (40 °C) it was 272 µM; in data set [6] (50 °C), 2110 µM; in data set [6] (60 °C), 58 µM.

B6: unnamed (protein)
chain: MAVITPRRERSSLLSRALRFTAAAATALVTAVSLAAPAHAANPYERGPNPTDALLEARSGPFSVSEERASRFGADGFGGGTIYYPRENNTYGAVAISPGYTGTQASVAWLGKRIASHGFVVITIDTNTTLDQPDSRARQLNAALDYMINDASSAVRSRIDSSRLAVMGHSMGGGGSLRLASQRPDLKAAIPLTPWHLNKNWSSVRVPTLIIGADLDTIAPVLTHARPFYNSLPTSISKAYLELDGATHFAPNIPNKIIGKYSVAWLKRFVDNDTRYTQFLCPGPRDGLFGEVEEYRSTCPF
As for B6, the “Proxy for plastic degradation” value in data set [1] (30 °C) was 2.77 µM; in data set [1] (40 °C) it was 2.15 µM; in data set [1] (50 °C), 2.1 µM; in data set [1] (55 °C), 2.23 µM; in data set [1] (60 °C) it was 0 µM.

B7: unnamed (protein)
chain: APPDYGLPGSYPVAYSDVTAVAGGRSVPARVHYPATTSGTNQPVATGRFPVIA
Regarding B7, the “Proxy for plastic degradation” value amounted to 13000 in data set [3]; 13 µM in data set [4] (30 °C); 18 µM in data set [4] (40 °C); 16.6 µM in data set [4] (50 °C); 16.2 µM in data set [4] (55 °C); 16.5 µM in data set [4] (60 °C).
